We go through 50 sequences from the domain aggregation screens of Martell et al. (2025).

This data set is described as follows: soluble fraction after stress (log2 fold change); higher = more stays soluble; pooled small domains, quantitative proteomics. The note with it: stress: pH 4. In short, it runs like this:
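Small protein domains from pooled custom libraries were exposed to pH 4, then quantified with high-throughput quantitative proteomics. The fold change in how much of each domain remains soluble is read as aggregation propensity. It is given as log2, with higher values meaning more stayed soluble.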
Take “HMTEGDRLARRILRLVRNKPNGYPEVELMKATVLDWNHFQRSISSLEMAGILERRDPGDGTPPVWVEKR”: the “soluble fraction (log2)” value was -1.11. In the case of “HMTEKIEWYKEVLDLEPNSKIFFPLAKMLEKEGELEEARRVLAEGVSRHEEFLEARLFYISVLSRL” it was -1.05.

As to “HMTENLELLATGSLWTEPDGSGKIISYLIPGLRVKKLETNGIFYKIQLQNGLIGWADQSLFTIAEPK”, the “soluble fraction (log2)” value is -0.212. Regarding “HMTENQKNIDLIKIVSLLVHAAKIDENYTNKEKELIINFINNFSKENKQNIKSSEILEEAEKYEK”, the “soluble fraction (log2)” value was -0.0377. Consider “HMTEPKRIVDHWQPSDDVYDILRMSHIDLDFARSLLPEFIVYWKDSSQTHTSWNSKFLQHAKYHWAKRHQL”, for which the “soluble fraction (log2)” value was -1.21. On to “HMTEPLTKREKEVLLLLPRGLTAKAMASELFLTEATIKSHLAAIFRKFKVVNRTQAIAIAVESKILT”, for which the “soluble fraction (log2)” value was -1.1. In the case of “HMTESLVITVDPALHGLRLDRGLADALPDRSRSEVQRWIKEGRVQLHGAPAKPSLKLAAGDIVTIALPEE” it was 0.236; in that of “HMTESSTYFEKIGTEISQFKSIPKNIDVIIIEKLIYSGIIKKVDNEENSRVYYILTRKGRYFWKRYVLS”, -0.0659. Consider “HMTETFVLNLRQPIAAAPVLPGYRVARTDEQTLEVEVSKDQNLNEIFTALSALGVEVLSMRNK”, for which the “soluble fraction (log2)” value is -0.303. In the case of “HMTFAEADAQYEVIKQQYLAGALDEEQFDEQLHRLMVLDDGGLWWAKSRENGSWHYYDPDREDWIAATP” it was -0.995. Next, “HMTFEAKKGYINADMSVNVRETASTSATVIITLNPNTEVKVVGEENDFYKIEYKEYKGYVAKRLISDSQVQ”: -0.142; “HMTFPTEAKLTGDKVFVRSGPSTQSQRLTNLAINSVVTVLAREMGDMQYPWYKVRYSDGEGWVYGQYVEAI”: 0.122. In the case of “HMTFTQFAESHGVIIKSLKASDKIQRGPTVAHPKSDNGAWLWDGNRGGVMAWDGDGQWYWFK” it was -0.108; in that of “HMTGEERRMNTADLYRRRGMELFKRKIYVDAIDSLKVSLEYEDNATTRYYLDLATKRYQDLKIS”, -0.0891. Turning to “HMTGETWAERSRALAAAGLIVMGQEAKNKIEDLPSLSPLIEAAAASETRLLTGQIIDELLAFV”, the “soluble fraction (log2)” value is -1.04. As for “HMTGIELLSHREHQVYDLLTQGRTVTEIGAQLNLAPNTVSTYRARILEKTGTKNDVELALYAQRH”, the “soluble fraction (log2)” value was -0.114. In the case of “HMTGKASEIAALLEQRIAAGDYPAGSKLPSERELAASFHVSRNTIRDAIALLAARKIVSTKWGAGTVVLG” it was -0.0946. In the case of “HMTGLRETIPAALDGERLDRVVALLGDVSRSRASAALEAERVTLDGEVVTLRSHRVREGEELTVAGFE” it was 0.177; in that of “HMTGLSAQILAKLRDNHGVLPVSDKSDPAVISNLFGVSKGNFKKAIGGLYKEGQIVIHADRIEL”, 0.302; in that of “HMTGLSFEEKDLLGNALKLLDETERRIVILHATSGLKHREIAKQLDIPLPTVLSKYTRAIKKLKKHME”, -0.144. Take “HMTGPSYTTRRVEAAETMMEFLRTFPQAAPFIGDLYVKAQDWPLGEEIGDRLKKMLPPQLQE”: the “soluble fraction (log2)” value was -0.451. For “HMTGQVASMVERLAQRLKDQPQDAEGWAMLARSYSVLGRHPEALQAYEKALALRKDDANLLADYADSLA”, the “soluble fraction (log2)” value is -0.729. In the case of “HMTGRHEEAIQELKRTLELHPQKPKIFLLLGVSYLRLNNLKKAVEAFNTVLLLQPKNQKALTMLKEIKKR” it was -0.113; in that of “HMTGSLLVEVQGRPDADRLLGQALVDAGLTARPAGGALIEVEVRDETTPDVVRDLTVDLGLGLVRMQERH”, -1.01; in that of “HMTGSLRIKHKTYYMLFSWKDESGQWRQKSESTGIPERGGKRKAQEMLNTRLEELQLQSTASL”, 0.199. As for “HMTGSLRVTSSPSGAEIYVDEIYRGYTPLTIGSLSTGRHEVRLHLSGYQDYTRTVEIESGSQSSFSVTLT”, the “soluble fraction (log2)” value worked out at 0.0547.

In the case of “HMTGSTSVAQVSTPSGSLNLRAYASTSARVLLQIPEYAFVTVYNRGATWSYVSYNGVSGYVMSVYLSFGG”, the “soluble fraction (log2)” value was -0.846. Turning to “HMTGTVKVNSLNVYKSASLDSEVKDTLVLNTKVTIAENGQVTDGIYVWGRLQSGEGYVQMNNLTL”, the “soluble fraction (log2)” value was -1.59. Next, “HMTHRRLELTLDAIDERLDRALTAAVPELSRMQWQRLIREGLVTVDGERARPSYRIQGGETLVALVPEV”: -0.167; “HMTIAEGLIFRFTEPFKPIDQYTYYIMGDNKVEQIPNFKTLEVMLAQRNQNYLSVRVIEKSQLDDILKEF”: -1.73. As to “HMTIDETKKQQVKDGLKDIPGVTVEFVGDKAVLKGAVTDANRVKIMQIVMAAKVLSDASGLTSK”, the “soluble fraction (log2)” value was found to be 0.237.

Turning to “HMTIDTSNDLLNQITEATSKGPISILELKDQLNVNASDIEGELRTLIDQHLVFLKDGMLQVIPFD”, the “soluble fraction (log2)” value was -0.423. Next, “HMTIEEMAIENINFSTQLLYKAMKYNGVNTVGDLLEKARSKKDLLTMAYIGNKEAEEIIEKLSELGITI”: -1.84. As for “HMTIFGWQQDETGKWYRNADGTFYENGWKEIDGAQYYFDENGYVTTGWLELDGKDYYFDEEGKYDSTKVR”, the “soluble fraction (log2)” value was -1.25.

As for “HMTIGPALAIGGNKVEMTQQGKIQVTNPQGKIKTLSQDEFKKQLVKNADKIEAGQDFEFKKD”, the “soluble fraction (log2)” value was 0.339. In the case of “HMTIKLFPNPSTDFIRVSELSAKENYKIYTILGSEIKRGSVSNNETIDIRNLNSGVYLLKFDNGTTKKIVK”, the “soluble fraction (log2)” value is 0.124. For the sequence “HMTIKTAFPAEDLAKPDNFKSLLYYFGLLTIRGTKWGSTLLAIPNLTVREQLYSYLVEAYRSADL”, the “soluble fraction (log2)” value was 0.244.

Turning to “HMTILKEGMSGPEVERLQDALKRHGFDPGRVDGQFGPGTEAAILAFQKSEGLRADGVAGPKTQQALGLE”, the “soluble fraction (log2)” value was 0.155. Next, “HMTIRLKELRKQKGNTQAEVAKILGTNQSQYGKYENERTQLSLDNAKILSDYFGVSVPYLLGLDDNP”: -0.486; “HMTISDTAYQAFLEQLGVGMVVEHKRFGEGVITGMPKGKIRITFEEGTKSFQARALAESGMLK”: -0.824.

As for “HMTISIAEQIFEQLEREILSGAYPRGELLTETKLSEKLGVSRTPIREALRRLDQEHIIKMTTKGAFVLGI”, the “soluble fraction (log2)” value is 0.198. In the case of “HMTITIGNSDGGYMKMGADGFEVRFSGSDGGNHYAKMYYNNDGWARLTLGSYGEEKARIDSDGMIQTR” it was 0.208. Next, “HMTKEAIAQKLRIARQESGLTQKDVSAKIGRPQQTIASWEVGRSQPDADTLYSLLLLYKVSPNTFFEYD”: -0.237. Turning to “HMTKEEIVVNWLPRYTKRNLEDFGEYILLTNFNKYVEIFAEKFNVPILGRDANMISASAEGITIIN”, the “soluble fraction (log2)” value is -0.359. In the case of “HMTKEEREKREKYEKLMKKAEELTAAKNHREVINVLGQAKAYATAAQLKEIEEKIKAATSEMNK” it was 0.257; in that of “HMTKEGVNISITADGVQLSTESPNRVSIFNVNGTKVWEGIAPANVSLQKGVYILQTANGNTKFV”, -0.407.

“HMTKLLITNYERNVLINSYLLKNTPELDDIRRLLVHNKHISENDVSTEMARRIKKHKADWLRVT”: the “soluble fraction (log2)” value came to 0.00962.

Consider “HMTKLTPLEVNLYAKKLANDPEFGSKHIEPGESFSQAEERLRVQLSQQEYVQKYSKYLKKLKASA”, for which the “soluble fraction (log2)” value is 0.0433.

On to “HMTKPAEVRIDELMNAAQTLFLAKGVEATTISEIIASVGVAKGTFYHYFESKQHIVEALKKRYID”, for which the “soluble fraction (log2)” value was -1.03.

As to “HMTKQNVVPLMYRMIDTLEQFIKADVPFNIETRLARVERLRETMVSSSVTTSEKFRQVLEAYTIETD”, the “soluble fraction (log2)” value is -1.53.
